The array DNA melting data of Ke et al.

Assay: melting temperature; melt of duplexes
Details: sodium 0.0675 M; strand 1 µM

Substance | Tm [°C]
CGACGTGCCACATGTGCTG+CAGCACATACCGCACGTCG ((((((((...((((((((+))))))))...)))))))) | 46.7
CGACGTGCAGTATGTGCTG+CAGCACATCGAGCACGTCG ((((((((...((((((((+))))))))...)))))))) | 50.1
CGACGTGCTCGATGTGCTG+CAGCACATCTGGCACGTCG ((((((((..(((((((((+)))))))))..)))))))) | 54.3
CGACGTGCTAGATGTGCTG+CAGCACATCTTGCACGTCG ((((((((.((((((((((+)))))))))).)))))))) | 58.7
CGACGTGCATCATGTGCTG+CAGCACATACCGCACGTCG ((((((((...((((((((+))))))))...)))))))) | 46.6
CGACGTGCCATATGTGCTG+CAGCACATGCTGCACGTCG ((((((((...((((((((+))))))))...)))))))) | 46.7
CGACGTGCGGTATGTGCTG+CAGCACATAATGCACGTCG ((((((((..(((((((((+)))))))))..)))))))) | 54.6
CGACGTGCACCATGTGCTG+CAGCACATGTAGCACGTCG ((((((((..(((((((((+)))))))))..)))))))) | 50.9
CGACGTGCATAATGTGCTG+CAGCACATCCGGCACGTCG ((((((((...((((((((+))))))))...)))))))) | 48.3
CGACGTGCATTATGTGCTG+CAGCACATGAGGCACGTCG ((((((((.(.((((((((+)))))))).).)))))))) | 54
CGACGTGCCCGATGTGCTG+CAGCACATTGCGCACGTCG ((((((((.(.((((((((+)))))))).).)))))))) | 51.2
CGACGTGCCAAATGTGCTG+CAGCACATGGAGCACGTCG ((((((((...((((((((+))))))))...)))))))) | 52.4
CGACGTGCTACATGTGCTG+CAGCACATACTGCACGTCG ((((((((...((((((((+))))))))...)))))))) | 49.3
CGACGTGCCCAATGTGCTG+CAGCACATTCCGCACGTCG ((((((((..(((((((((+)))))))))..)))))))) | 49.3
CGACGTGCGTAATGTGCTG+CAGCACATGCCGCACGTCG (((((((((..((((((((+))))))))..))))))))) | 54.9
CGACGTGCGGAATGTGCTG+CAGCACATCCCGCACGTCG ((((((((((.((((((((+)))))))).)))))))))) | 60.3
CGACGTGCTGGATGTGCTG+CAGCACATCTCGCACGTCG ((((((((..(((((((((+)))))))))..)))))))) | 55.3
CGACGTGCGCGATGTGCTG+CAGCACATTTGGCACGTCG ((((((((...((((((((+))))))))...)))))))) | 49.7
CGACGTGCAATATGTGCTG+CAGCACATGCGGCACGTCG ((((((((...((((((((+))))))))...)))))))) | 49.7
CGACGTGCGATATGTGCTG+CAGCACATGGGGCACGTCG ((((((((...((((((((+))))))))...)))))))) | 51.3
CGACGTGCTAAATGTGCTG+CAGCACATTATGCACGTCG ((((((((..(((((((((+)))))))))..)))))))) | 53.1
CGACGTGCGAGATGTGCTG+CAGCACATCCTGCACGTCG ((((((((..(((((((((+)))))))))..)))))))) | 55.6
CGACGTGCGGGATGTGCTG+CAGCACATGTCGCACGTCG (((((((((..((((((((+))))))))..))))))))) | 57.8
CGACGTGCCAGATGTGCTG+CAGCACATCAGGCACGTCG (((((((((.(((((((((+))))))))).))))))))) | 59.8

Substance | Tm [°C]
CGACGTGCAACATGTGCTG+CAGCACATTAGGCACGTCG ((((((((...((((((((+))))))))...)))))))) | 48.9
CGACGTGCGATATGTGCTG+CAGCACATCGTGCACGTCG ((((((((...((((((((+))))))))...)))))))) | 44.3
CGACGTGCCGGATGTGCTG+CAGCACATTCCGCACGTCG ((((((((.(.((((((((+)))))))).).)))))))) | 54
CGACGTGCTCAATGTGCTG+CAGCACATATCGCACGTCG ((((((((...((((((((+))))))))...)))))))) | 47.5
CGACGTGCGGAATGTGCTG+CAGCACATCGTGCACGTCG ((((((((...((((((((+))))))))...)))))))) | 46.7
CGACGTGCAATATGTGCTG+CAGCACATATTGCACGTCG (((((((((((((((((((+))))))))))))))))))) | 61.2
CGACGTGCCTGATGTGCTG+CAGCACATAAAGCACGTCG ((((((((.(.((((((((+)))))))).).)))))))) | 51.7
CGACGTGCGTGATGTGCTG+CAGCACATCAGGCACGTCG ((((((((.((((((((((+)))))))))).)))))))) | 59.6
CGACGTGCGAAATGTGCTG+CAGCACATCCAGCACGTCG ((((((((...((((((((+))))))))...)))))))) | 50.8
CGACGTGCGCAATGTGCTG+CAGCACATGATGCACGTCG ((((((((...((((((((+))))))))...)))))))) | 52.5
CGACGTGCGCTATGTGCTG+CAGCACATGTTGCACGTCG ((((((((...((((((((+))))))))...)))))))) | 49.6
CGACGTGCATCATGTGCTG+CAGCACATTTTGCACGTCG (((((((((..((((((((+))))))))..))))))))) | 50.7
CGACGTGCATGATGTGCTG+CAGCACATTACGCACGTCG ((((((((.(.((((((((+)))))))).).)))))))) | 50.6
CGACGTGCTCAATGTGCTG+CAGCACATAGGGCACGTCG ((((((((.(.((((((((+)))))))).).)))))))) | 52.8
CGACGTGCTCCATGTGCTG+CAGCACATGATGCACGTCG ((((((((..(((((((((+)))))))))..)))))))) | 53.7
CGACGTGCCCGATGTGCTG+CAGCACATGGCGCACGTCG ((((((((.(.((((((((+)))))))).).)))))))) | 53.3
CGACGTGCTACATGTGCTG+CAGCACATAACGCACGTCG ((((((((...((((((((+))))))))...)))))))) | 49
CGACGTGCTTGATGTGCTG+CAGCACATGCCGCACGTCG ((((((((...((((((((+))))))))...)))))))) | 47.8
CGACGTGCAACATGTGCTG+CAGCACATGTTGCACGTCG (((((((((((((((((((+))))))))))))))))))) | 64.5
CGACGTGCCCGATGTGCTG+CAGCACATACTGCACGTCG ((((((((...((((((((+))))))))...)))))))) | 48.7
CGACGTGCGTGATGTGCTG+CAGCACATTGAGCACGTCG ((((((((...((((((((+))))))))...)))))))) | 54.7
CGACGTGCGAGATGTGCTG+CAGCACATCACGCACGTCG (((((((((.(((((((((+))))))))).))))))))) | 61.4
CGACGTGCTGTATGTGCTG+CAGCACATGGTGCACGTCG ((((((((...((((((((+))))))))...)))))))) | 47.2
CGACGTGCTCAATGTGCTG+CAGCACATTGTGCACGTCG ((((((((.((((((((((+)))))))))).)))))))) | 56.7

Substance | Tm [°C]
CGACGTGCTGCATGTGCTG+CAGCACATGGTGCACGTCG ((((((((..(((((((((+)))))))))..)))))))) | 54.2
CGACGTGCTTGATGTGCTG+CAGCACATTCAGCACGTCG (((((((((..((((((((+))))))))..))))))))) | 51.9
CGACGTGCGGAATGTGCTG+CAGCACATAACGCACGTCG (((((((((..((((((((+))))))))..))))))))) | 58.6
CGACGTGCGCAATGTGCTG+CAGCACATACGGCACGTCG ((((((((...((((((((+))))))))...)))))))) | 48.6
CGACGTGCGGCATGTGCTG+CAGCACATAAAGCACGTCG ((((((((...((((((((+))))))))...)))))))) | 56
CGACGTGCAGCATGTGCTG+CAGCACATACGGCACGTCG ((((((((.(.((((((((+)))))))).).)))))))) | 49.3
CGACGTGCGTAATGTGCTG+CAGCACATACGGCACGTCG ((((((((...((((((((+))))))))...)))))))) | 52.6
CGACGTGCGTTATGTGCTG+CAGCACATAAGGCACGTCG ((((((((.((((((((((+)))))))))).)))))))) | 56.5
CGACGTGCGCTATGTGCTG+CAGCACATAGAGCACGTCG ((((((((.((((((((((+)))))))))).)))))))) | 58.7
CGACGTGCACCATGTGCTG+CAGCACATGCTGCACGTCG (((((((((.(((((((((+))))))))).))))))))) | 51.6
CGACGTGCTCGATGTGCTG+CAGCACATGTCGCACGTCG ((((((((...((((((((+))))))))...)))))))) | 48.2
CGACGTGCTCCATGTGCTG+CAGCACATCACGCACGTCG ((((((((...((((((((+))))))))...)))))))) | 47
CGACGTGCCCAATGTGCTG+CAGCACATGCCGCACGTCG ((((((((...((((((((+))))))))...)))))))) | 48.9
CGACGTGCAGAATGTGCTG+CAGCACATGGTGCACGTCG (((((((((..((((((((+))))))))..))))))))) | 52.6
CGACGTGCTGCATGTGCTG+CAGCACATGCAGCACGTCG (((((((((((((((((((+))))))))))))))))))) | 67.5
CGACGTGCAGAATGTGCTG+CAGCACATTGTGCACGTCG (((((((((.(((((((((+))))))))).))))))))) | 55.8
CGACGTGCTCAATGTGCTG+CAGCACATGGGGCACGTCG ((((((((.(.((((((((+)))))))).).)))))))) | 55
CGACGTGCAAGATGTGCTG+CAGCACATAGCGCACGTCG ((((((((...((((((((+))))))))...)))))))) | 49.8
CGACGTGCATGATGTGCTG+CAGCACATGACGCACGTCG ((((((((.(.((((((((+)))))))).).)))))))) | 46.2
CGACGTGCCGAATGTGCTG+CAGCACATGGCGCACGTCG ((((((((...((((((((+))))))))...)))))))) | 51.5
CGACGTGCGCAATGTGCTG+CAGCACATCTCGCACGTCG (((((((((..((((((((+))))))))..))))))))) | 52.8
CGACGTGCGTCATGTGCTG+CAGCACATTGGGCACGTCG ((((((((...((((((((+))))))))...)))))))) | 49.9
CGACGTGCTCGATGTGCTG+CAGCACATTAGGCACGTCG ((((((((...((((((((+))))))))...)))))))) | 50.9
CGACGTGCAAGATGTGCTG+CAGCACATTGTGCACGTCG (((((((((..((((((((+))))))))..))))))))) | 50.6
